Target: T1, fibrinogen (Homo sapiens, UniProt P02671+P02675+P02679)
T1 sequence (P02671 20-629 limits assumed): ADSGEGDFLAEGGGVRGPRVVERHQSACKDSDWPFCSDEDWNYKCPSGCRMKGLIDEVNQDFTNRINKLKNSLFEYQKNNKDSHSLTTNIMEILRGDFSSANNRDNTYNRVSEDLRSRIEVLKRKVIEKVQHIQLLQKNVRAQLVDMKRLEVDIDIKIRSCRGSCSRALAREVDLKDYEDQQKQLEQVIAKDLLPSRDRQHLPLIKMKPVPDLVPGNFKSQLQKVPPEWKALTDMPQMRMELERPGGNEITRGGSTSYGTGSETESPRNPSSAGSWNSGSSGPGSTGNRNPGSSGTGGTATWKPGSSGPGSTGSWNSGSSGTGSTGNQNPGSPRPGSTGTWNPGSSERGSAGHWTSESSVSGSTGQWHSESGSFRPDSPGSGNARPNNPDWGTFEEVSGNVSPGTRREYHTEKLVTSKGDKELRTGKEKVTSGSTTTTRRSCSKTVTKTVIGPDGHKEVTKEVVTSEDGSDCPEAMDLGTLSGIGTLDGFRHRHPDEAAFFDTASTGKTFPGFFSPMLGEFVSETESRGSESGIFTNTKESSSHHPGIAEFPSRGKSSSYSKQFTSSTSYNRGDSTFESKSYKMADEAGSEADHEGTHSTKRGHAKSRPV
T1 sequence (P02675 31-491): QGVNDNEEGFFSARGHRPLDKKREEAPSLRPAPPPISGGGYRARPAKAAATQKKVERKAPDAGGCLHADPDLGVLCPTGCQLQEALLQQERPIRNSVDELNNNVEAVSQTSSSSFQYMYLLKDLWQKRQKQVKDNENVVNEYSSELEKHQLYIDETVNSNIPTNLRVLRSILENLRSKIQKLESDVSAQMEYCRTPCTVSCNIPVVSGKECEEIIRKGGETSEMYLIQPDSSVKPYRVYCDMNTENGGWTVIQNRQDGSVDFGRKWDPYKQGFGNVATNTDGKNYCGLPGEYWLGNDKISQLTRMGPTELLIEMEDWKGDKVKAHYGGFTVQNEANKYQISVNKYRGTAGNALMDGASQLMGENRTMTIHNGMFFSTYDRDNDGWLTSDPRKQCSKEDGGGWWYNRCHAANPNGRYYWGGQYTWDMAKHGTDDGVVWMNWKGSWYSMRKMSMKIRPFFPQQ
T1 sequence (P02679 27-453): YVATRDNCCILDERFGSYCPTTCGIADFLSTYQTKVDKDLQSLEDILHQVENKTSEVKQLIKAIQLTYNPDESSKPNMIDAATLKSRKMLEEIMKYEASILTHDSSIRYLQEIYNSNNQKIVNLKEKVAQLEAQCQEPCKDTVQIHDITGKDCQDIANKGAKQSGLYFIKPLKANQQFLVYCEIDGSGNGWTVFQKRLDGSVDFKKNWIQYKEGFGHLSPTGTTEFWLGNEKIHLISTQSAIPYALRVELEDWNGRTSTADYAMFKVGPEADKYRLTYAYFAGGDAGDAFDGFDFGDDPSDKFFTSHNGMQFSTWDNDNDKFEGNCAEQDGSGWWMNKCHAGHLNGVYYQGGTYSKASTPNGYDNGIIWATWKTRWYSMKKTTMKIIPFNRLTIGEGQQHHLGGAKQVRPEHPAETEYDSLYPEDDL
Assay: ELISAs of H6 binding to fibrinogen in various states of unfolding
Description: Characterization of H6 binding to fibrin was determined through a series of experiments designed to test the ability of H6 to bind fibrinogen in various states of unfolding.
In the first experiment ELISAs, as described previously, were performed comparing the ability of H6 to bind fibrinogen that was either passively adsorbed to a glass surface or immobilized to a glass surface, the assumption being that fibrinogen exists in a more unfolded state when adsorbed in comparison to when its immobilized on a surface.
This experiment was repeated comparing the ability of H6 to bind fibrinogen passively adsorbed to a plastic surface after having been heat-denatured, or not, with the assumption being that heat-denatured fibrinogen exists in a more unfolded state than that of fibrinogen that was not heat-denatured.
Finally, this experiment was repeated to compare the ability of H6 to bind fibrinogen that was passively adsorbed after no treatment, heat denaturing, heat denaturing plus reduction of sulfide bonds, or just reduction of sulfide bonds. The assumption is that reduction of sulfide bonds within a fibrinogen molecule in addition to heat denaturing result in an even greater extent of molecular unfolding than compared to heat denaturing alone.

B1: H6: fibrin-specific human sdFv clone from phage biopanning, SEQ ID NO: 1 (protein)
VHH: QVQLLESGGGLVQPGGSLRLSCAASGDRFTHNDMGWVRQAPGKGLEWVSTIPTTDGSTYYADSVKGRFTISRDNSKSTLYLQMNSLRAEDTAVYYCATGYMWKAPAYVKYWGQGTLVTVSSAAAEQKLISEEDLNSAAHYTDIG
B1 was tested, and the “binding to fibrinogen on glass surface” value (adsorbed and immobilized fibrinogen) was “weak”, the “binding to immobilized versus adsorbed fibrinogen” value (glass surface) was “dose-dependent decrease in binding” and the “binding to fibrinogen adsorbed to plastic surface” value (heat-denatured or not) was “weak binding”. For the same molecule, the “binding to fibrinogen versus degree of unfolding” value (no treatment, heat denaturing, reduction of sulfide bonds, or both) was “positively correlated to the degree of unfolding” and the “binding to heat-denatured versus un-denatured fibrinogen” value (plastic surface) was “dose-dependent enhanced ability”.
